# Reference: PMC6019379, “RecA-like domain 2 of DNA-dependent ATPase A domain, a SWI2/SNF2 protein, mediates conformational integrity and ATP hydrolysis” (Bioscience Reports, 2018)
# T1: ADAAD R595A (Bos taurus (bovine), UniProt Q9TTA5 221-940, R815A)
# T1 sequence: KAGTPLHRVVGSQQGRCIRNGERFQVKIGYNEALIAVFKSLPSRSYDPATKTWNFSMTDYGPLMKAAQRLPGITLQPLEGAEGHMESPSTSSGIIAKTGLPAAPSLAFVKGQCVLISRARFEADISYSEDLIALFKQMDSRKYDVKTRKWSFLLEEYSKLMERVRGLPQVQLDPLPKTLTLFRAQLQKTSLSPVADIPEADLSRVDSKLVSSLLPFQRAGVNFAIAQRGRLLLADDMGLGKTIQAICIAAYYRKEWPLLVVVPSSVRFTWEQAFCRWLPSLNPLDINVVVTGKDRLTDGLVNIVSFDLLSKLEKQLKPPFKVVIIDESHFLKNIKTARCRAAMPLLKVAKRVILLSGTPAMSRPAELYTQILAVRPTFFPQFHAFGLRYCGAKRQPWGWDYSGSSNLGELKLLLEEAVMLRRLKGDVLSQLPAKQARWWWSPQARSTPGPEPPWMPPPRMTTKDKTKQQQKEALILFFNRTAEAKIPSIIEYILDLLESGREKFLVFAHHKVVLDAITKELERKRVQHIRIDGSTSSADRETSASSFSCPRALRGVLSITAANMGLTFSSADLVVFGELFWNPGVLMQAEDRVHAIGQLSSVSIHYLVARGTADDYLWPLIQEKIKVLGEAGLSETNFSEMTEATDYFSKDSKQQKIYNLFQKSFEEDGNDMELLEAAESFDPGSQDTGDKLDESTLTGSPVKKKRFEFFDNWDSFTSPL
# T2: ADAAD H329D/D591H (Bos taurus (bovine), UniProt Q9TTA5 221-940, H549D;D811H)
# T2 sequence: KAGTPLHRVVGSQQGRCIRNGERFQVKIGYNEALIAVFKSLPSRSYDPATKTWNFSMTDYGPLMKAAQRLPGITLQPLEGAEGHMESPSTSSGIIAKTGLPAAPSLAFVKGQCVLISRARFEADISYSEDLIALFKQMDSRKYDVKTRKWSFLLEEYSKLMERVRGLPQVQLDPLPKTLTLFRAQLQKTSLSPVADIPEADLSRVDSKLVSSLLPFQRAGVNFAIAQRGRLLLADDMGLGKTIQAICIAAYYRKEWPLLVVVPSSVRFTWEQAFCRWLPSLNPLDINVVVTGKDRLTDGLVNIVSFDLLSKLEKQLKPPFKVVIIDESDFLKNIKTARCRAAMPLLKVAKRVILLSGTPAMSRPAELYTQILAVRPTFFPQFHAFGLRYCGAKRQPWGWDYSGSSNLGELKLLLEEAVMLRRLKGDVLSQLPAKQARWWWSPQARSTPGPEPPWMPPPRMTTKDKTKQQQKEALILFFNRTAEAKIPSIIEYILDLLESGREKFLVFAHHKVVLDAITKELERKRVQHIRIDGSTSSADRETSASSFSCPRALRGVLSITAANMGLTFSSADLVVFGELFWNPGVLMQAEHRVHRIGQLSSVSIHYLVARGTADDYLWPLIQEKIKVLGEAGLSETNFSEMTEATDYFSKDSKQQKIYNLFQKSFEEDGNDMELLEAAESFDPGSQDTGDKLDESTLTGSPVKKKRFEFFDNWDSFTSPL
# T3: ADAAD S558A (Bos taurus (bovine), UniProt Q9TTA5 221-940, S778A)
# T3 sequence: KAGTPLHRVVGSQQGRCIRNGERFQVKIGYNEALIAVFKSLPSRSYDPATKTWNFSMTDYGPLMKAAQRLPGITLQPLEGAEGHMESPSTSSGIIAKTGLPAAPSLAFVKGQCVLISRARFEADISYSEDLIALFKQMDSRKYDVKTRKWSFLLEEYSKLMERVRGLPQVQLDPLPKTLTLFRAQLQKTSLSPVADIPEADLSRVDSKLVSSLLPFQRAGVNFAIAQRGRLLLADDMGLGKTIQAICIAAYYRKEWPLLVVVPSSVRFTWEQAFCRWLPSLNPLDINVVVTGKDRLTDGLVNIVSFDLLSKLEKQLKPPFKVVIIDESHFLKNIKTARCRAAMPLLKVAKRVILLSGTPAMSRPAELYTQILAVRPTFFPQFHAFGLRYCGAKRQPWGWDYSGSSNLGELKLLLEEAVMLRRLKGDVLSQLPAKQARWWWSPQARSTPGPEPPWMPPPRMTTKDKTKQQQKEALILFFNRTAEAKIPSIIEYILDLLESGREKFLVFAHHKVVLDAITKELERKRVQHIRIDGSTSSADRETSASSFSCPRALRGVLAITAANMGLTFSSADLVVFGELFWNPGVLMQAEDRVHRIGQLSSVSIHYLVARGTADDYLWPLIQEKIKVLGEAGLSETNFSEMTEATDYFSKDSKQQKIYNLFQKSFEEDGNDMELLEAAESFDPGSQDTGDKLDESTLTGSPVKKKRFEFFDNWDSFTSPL
# Tests used:
# Test in all cases: intrinsic tryptophan fluorescence titration; no ATP; Fluorescence titration (ex 295 nm, em 340 nm), one-site saturation fit; buffer, salt, pH and temperature not given in the material. Wild-type ADAAD Kd values are cited from ref 24 and not listed
# Details in all cases: protein: recombinant; tags: His (Ni-NTA, pET-14b); hairpin
# [1] = biological target: T1, ADAAD R595A
# [2] = biological target: T2, ADAAD H329D/D591H
# [3] = biological target: T3, ADAAD S558A
binder,measurement,setting,value
GCGCAATTGCGCTCGACGATTTTTTAGCGCAATTGCGC (structured_DNA) [slDNA (stem-loop DNA)],Kd,[1],24 ± 0.6 nM
same,Kd,[2],16.1 ± 5.7 nM
same,Kd,[3],11 ± 2.7 nM
